Assay results from patent publication US20130035256A1, “Chimeric Polypeptides Useful in Proximal and Dynamic High-Throughput Screening Methods” (ADDEX PHARMA SA, priority 2010, published 2013).
Entries after “also recorded” stand apart in the source; their conditions may differ.

Columns and labels:
[1] = biological target: T1, chimeric GIPR (Homo sapiens, UniProt P48546); experiment: BRET assay, specificity of the response of the chimeric GIPR (stable cell line, FP-Gγ9); assay type: cell-based; settings: increasing concentrations of ligand
T1 construct: ID; NOs; expressed in transfected cells
Experimental: 5 or 10 minutes after the addition of coelenterazine H to the cells, the read plate is placed in the FLIPR tetra and the measurement begins.
Finally, a three-addition protocol can also be run on the FLIPR tetra, containing three compound plates, of which the first one usually contains different candidate agents, the second one an agonist at its EC20 and the third one an agonist at its EC80, so that a screen for both positive and negative allosteric modulators can be run at the same time.
The camera is adjusted in such a way that the gain is set to a maximum of 28,000× and the shutters are opened 100%. The signal captured is regulated by adjusting the exposure time to 0.1 to 3 seconds ideally resulting of a signal between 30,000-60,000 RLU. The read interval (emission filter 1, emission filter 2) is adjusted to the minimal value that results from the addition of the two exposure times (=2×0.1 to 3 seconds) plus the time needed to move the filters from position 1 to position 2 (0.3 sec), resulting in a maximal read frequency of 0.5 seconds (2 Hz).
Data on FIG. 6 were obtained by applying a two-addition protocol as described above with respect to FIG. 4, with the main differences being the final concentration of coelenterazine H of 6 μM, the exposure time in both channels of 1.5 seconds and the read interval of 3.3 seconds, as well as the presence of 0.2% BSA in the HBSS++ buffer for diluting peptidic ligands. […] The effects of the ligands were read for another 180 reads. Area under curve of blue/yellow ratio from count 31 to the end of the measurement was taken for the analysis and plotted against ligand concentration for the construction of the graph in FIG. 6.

[2] = biological target: T2, chimeric M4R (RGLG-2) (Homo sapiens, UniProt P08173); experiment: BRET assay of the invention, cells co-expressing chimeric M4R (RGLG-2) and FP-Gγ9; assay type: cell-based; settings: increasing concentrations of ligand
T2 construct: ID; NOs; expressed in transfected cells
Experimental: The same cells as described for FIG. 10 A were used. […] The decrease of the signal below baseline in the PTX-treated condition confirms a constitutive activity that has been described for the M4R. […]
A typical experiment has the following sequence.
The assay of the present invention was compared with a state of the art calcium based assay. […] In calcium-based assay, a calcium flux is measured in cells co-expressing recombinant M4R and modified Gαq. In the assay in accordance with the present invention, BRET in measured in cells co-expressing a chimeric M4R according to RGLG-2 (construct and cell-line from FIG. 2C, Table 6) and FP-Gγ9 (as described in FIG. 10A). The data represent mean values and they are normalized to the maximal effect of the orthosteric agonist after the subtraction of the basal values.

[3] = test system: receptors endogenously expressed in non-transfected HEK cells; experiment: cAMP accumulation in non-transfected HEK cells; assay type: cell-based, human; settings: increasing concentrations of ligand
From the text: These ligands are the following: NECA (empty inverted triangles), Corticotropin releasing factor (CRF) (empty diamonds), calcitonin (full circles), isoproterenol (full triangles), UTP (full inverted triangles) and carbachol (full squares). […]

[4] = biological target: human GIPR-Renilla luciferase-Gαs long fusion protein (type RLG) (human); experiment: cell-based or functional assay
[5] = biological target: human GLP-1R-Renilla luciferase-Gαs long fusion protein (type RLG) (human); experiment: cell-based or functional assay
[6] = biological target: T3, GLP1R-L-G (human GLP-1 receptor) (Homo sapiens, UniProt P43220); experiment: BRET assay, HEK cells transiently co-transfected with GLP1R-L-G and a Gγ construct; assay type: cell-based; settings: cells coexpressing GLP1R-L-G and the Gγ construct, exposed to GLP-1
T3 construct: ID; expressed in transfected cells; host or cells: HEK cells, transient

[7] = biological target: T4, GIPR-L-G (human GIP receptor) (Homo sapiens, UniProt P48546); experiment: BRET assay, HEK cells transiently co-transfected with GIPR-L-G and a Gγ construct; assay type: cell-based; settings: cells coexpressing GIPR-L-G and the Gγ construct, exposed to GIP
T4 construct: ID; NOs; expressed in transfected cells; host or cells: HEK cells, transient

[8] = biological target: T5, hM1R fused to split Gαq harbouring a luminescent protein (type RGLG-3)
T5 chain: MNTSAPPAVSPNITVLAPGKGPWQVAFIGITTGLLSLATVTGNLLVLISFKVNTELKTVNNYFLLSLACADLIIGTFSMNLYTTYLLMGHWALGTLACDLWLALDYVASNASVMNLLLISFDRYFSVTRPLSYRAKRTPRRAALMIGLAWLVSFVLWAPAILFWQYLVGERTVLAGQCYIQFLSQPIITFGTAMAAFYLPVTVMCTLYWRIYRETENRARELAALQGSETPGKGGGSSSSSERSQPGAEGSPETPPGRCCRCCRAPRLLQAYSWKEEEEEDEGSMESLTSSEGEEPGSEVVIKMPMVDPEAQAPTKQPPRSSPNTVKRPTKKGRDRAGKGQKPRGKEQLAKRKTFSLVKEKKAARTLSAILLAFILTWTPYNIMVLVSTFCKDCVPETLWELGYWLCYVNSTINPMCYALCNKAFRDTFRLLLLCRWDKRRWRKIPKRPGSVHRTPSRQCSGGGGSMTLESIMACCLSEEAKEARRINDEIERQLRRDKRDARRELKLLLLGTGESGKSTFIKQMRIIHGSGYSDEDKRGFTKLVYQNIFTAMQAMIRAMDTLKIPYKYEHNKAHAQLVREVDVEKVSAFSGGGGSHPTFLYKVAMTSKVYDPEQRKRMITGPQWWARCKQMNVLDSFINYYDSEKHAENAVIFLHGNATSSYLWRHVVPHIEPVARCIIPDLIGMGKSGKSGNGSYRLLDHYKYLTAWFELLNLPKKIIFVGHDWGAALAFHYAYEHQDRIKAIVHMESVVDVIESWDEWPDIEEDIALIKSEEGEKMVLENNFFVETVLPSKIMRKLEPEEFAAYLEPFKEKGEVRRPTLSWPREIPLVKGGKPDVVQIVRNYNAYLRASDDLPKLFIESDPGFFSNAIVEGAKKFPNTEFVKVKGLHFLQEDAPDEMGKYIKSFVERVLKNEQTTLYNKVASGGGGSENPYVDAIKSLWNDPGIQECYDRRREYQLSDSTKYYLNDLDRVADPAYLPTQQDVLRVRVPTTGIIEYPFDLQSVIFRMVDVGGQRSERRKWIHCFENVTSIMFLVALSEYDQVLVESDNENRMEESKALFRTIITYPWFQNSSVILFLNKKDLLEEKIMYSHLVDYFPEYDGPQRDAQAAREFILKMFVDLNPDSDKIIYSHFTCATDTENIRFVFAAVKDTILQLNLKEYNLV

[9] = biological target: hM4-R RGLG-2 fusion construct with the PTX-insensitive mutant (C351S) of Gαo
[10] = biological target: T6, hM4-R-Gαo^1-91-Luciferase-Gαo^92-354 fusion protein (type RGLG-2)
T6 chain: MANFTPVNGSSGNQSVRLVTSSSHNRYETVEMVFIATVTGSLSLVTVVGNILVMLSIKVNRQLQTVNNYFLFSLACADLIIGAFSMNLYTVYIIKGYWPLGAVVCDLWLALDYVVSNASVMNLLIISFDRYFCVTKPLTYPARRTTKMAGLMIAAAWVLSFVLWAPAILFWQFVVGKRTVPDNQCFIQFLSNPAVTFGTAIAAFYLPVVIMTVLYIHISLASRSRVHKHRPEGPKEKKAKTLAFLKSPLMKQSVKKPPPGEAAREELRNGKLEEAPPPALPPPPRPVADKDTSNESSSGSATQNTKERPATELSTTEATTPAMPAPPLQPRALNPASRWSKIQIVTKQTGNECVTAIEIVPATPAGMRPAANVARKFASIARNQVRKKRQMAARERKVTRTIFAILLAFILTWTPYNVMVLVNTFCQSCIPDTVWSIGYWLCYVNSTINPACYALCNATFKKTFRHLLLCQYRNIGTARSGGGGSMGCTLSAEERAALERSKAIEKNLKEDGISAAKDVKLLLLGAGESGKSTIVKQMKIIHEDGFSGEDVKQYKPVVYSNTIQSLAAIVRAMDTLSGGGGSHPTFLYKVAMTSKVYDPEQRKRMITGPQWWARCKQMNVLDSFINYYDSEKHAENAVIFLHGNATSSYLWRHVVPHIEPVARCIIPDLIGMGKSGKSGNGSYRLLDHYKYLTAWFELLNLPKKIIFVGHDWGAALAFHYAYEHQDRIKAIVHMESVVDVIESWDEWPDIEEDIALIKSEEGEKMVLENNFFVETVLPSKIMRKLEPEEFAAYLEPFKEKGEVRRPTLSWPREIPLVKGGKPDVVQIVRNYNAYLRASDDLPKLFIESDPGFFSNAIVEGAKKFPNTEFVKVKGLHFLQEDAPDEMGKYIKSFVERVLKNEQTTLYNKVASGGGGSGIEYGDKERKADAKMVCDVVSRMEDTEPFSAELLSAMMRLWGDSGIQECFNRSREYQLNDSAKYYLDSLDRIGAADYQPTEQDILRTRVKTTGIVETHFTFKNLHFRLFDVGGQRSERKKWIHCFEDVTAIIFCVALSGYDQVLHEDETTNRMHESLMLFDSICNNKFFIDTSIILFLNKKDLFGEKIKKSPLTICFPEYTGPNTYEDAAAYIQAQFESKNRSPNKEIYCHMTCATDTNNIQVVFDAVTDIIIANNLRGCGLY

Chain of human GLP-1R-Renilla luciferase-Gαs long fusion protein (type RLG) (human) (chain, as listed by the source limits assumed): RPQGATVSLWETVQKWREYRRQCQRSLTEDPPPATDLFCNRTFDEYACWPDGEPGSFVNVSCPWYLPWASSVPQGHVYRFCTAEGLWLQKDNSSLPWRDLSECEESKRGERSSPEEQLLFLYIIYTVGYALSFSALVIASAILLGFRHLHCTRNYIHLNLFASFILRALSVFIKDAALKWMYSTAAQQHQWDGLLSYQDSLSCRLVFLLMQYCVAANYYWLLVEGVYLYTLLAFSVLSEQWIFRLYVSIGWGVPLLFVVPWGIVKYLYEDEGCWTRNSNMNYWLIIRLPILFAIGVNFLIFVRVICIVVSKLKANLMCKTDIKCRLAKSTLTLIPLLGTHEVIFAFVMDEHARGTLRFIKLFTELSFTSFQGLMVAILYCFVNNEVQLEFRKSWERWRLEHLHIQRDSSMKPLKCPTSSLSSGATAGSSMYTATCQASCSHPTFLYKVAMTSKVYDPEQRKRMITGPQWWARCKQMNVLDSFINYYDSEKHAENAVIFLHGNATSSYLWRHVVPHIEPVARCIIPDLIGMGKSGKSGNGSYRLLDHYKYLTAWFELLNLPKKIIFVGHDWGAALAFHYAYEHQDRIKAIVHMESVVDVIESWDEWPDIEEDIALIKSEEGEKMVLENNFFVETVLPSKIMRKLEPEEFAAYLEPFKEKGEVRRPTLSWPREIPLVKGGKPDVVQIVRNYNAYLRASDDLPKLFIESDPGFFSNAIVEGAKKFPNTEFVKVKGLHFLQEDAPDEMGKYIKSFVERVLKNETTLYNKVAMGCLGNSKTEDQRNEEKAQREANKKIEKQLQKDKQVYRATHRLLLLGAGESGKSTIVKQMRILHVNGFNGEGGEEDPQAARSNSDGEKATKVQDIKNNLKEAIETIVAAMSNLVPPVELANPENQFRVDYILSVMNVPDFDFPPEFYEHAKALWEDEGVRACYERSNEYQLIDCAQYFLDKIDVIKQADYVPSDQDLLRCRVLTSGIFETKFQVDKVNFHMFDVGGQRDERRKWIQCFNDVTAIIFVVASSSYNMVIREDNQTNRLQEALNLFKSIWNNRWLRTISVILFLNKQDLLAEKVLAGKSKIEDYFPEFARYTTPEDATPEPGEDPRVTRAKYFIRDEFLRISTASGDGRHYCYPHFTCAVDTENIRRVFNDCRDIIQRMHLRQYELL
Chain of human GIPR-Renilla luciferase-Gαs long fusion protein (type RLG) (human) (chain, as listed by the source limits assumed): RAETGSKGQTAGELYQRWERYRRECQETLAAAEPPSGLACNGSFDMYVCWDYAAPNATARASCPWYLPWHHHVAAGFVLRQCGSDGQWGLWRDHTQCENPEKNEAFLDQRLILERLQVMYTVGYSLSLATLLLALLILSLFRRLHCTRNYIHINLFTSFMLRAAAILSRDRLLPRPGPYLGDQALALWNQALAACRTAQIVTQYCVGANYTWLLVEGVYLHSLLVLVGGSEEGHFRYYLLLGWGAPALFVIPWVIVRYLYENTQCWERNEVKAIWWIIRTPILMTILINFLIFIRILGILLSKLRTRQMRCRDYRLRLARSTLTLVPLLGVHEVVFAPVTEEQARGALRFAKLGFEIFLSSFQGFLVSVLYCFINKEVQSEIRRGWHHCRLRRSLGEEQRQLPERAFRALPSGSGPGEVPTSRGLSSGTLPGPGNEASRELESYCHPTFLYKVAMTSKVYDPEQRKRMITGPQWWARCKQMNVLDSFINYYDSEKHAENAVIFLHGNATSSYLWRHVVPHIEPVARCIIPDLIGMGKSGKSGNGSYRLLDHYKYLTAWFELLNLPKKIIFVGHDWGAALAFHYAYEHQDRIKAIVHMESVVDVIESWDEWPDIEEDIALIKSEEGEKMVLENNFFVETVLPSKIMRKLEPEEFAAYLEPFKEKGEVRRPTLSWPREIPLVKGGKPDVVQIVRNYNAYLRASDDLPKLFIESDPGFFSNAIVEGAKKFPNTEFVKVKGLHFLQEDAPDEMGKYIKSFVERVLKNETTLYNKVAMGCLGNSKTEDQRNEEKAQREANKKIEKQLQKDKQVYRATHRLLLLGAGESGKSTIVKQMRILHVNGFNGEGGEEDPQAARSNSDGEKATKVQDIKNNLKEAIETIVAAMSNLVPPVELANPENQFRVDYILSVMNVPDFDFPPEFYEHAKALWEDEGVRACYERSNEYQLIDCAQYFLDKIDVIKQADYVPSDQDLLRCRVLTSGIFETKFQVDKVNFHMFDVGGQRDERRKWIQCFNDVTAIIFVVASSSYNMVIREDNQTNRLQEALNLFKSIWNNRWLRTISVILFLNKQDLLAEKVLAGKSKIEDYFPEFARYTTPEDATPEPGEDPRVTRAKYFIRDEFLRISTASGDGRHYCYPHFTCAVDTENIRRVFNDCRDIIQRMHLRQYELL

CCNC(=O)[C@H]1O[C@@H](n2cnc3c(N)ncnc32)[C@H](O)[C@@H]1O [NECA, 5′-N-ethylcarboxamidoadenosine]
activation of the chimeric GIPR (BRET) [1]: lack of activation
activation of the chimeric M4R (BRET) [2]: lack of activation
activation of endogenously expressed receptors, cAMP accumulation [3]: activated; also recorded: increase in cAMP

O=c1ccn([C@@H]2O[C@H](COP(=O)(O)OP(=O)(O)OP(=O)(O)O)[C@@H](O)[C@H]2O)c(=O)[nH]1 [UTP, uridine-5′-triphosphate]
activation of the chimeric GIPR (BRET) [1]: lack of activation
activation of endogenously expressed receptors, cAMP accumulation [3]: activated; also recorded: increase in cAMP

C[N+](C)(C)CCOC(N)=O [carbachol]
activation of the chimeric GIPR (BRET) [1]: lack of activation
activation of the chimeric M4R (BRET) [2]: activation
activation of endogenously expressed receptors, cAMP accumulation [3]: activated; also recorded: increase in cAMP

CC(C)NCC(O)c1ccc(O)c(O)c1 (stereo not drawn) [isoproterenol]
activation of the chimeric GIPR (BRET) [1]: lack of activation
activation of the chimeric M4R (BRET) [2]: lack of activation
activation of endogenously expressed receptors, cAMP accumulation [3]: activated; also recorded: increase in cAMP

CRF: Corticotropin releasing factor, ligand of a receptor endogenously expressed in HEK cells
activation of the chimeric GIPR (BRET) [1]: lack of activation
activation of the chimeric M4R (BRET) [2]: lack of activation
activation of endogenously expressed receptors, cAMP accumulation [3]: increase in cAMP
activation of endogenously expressed receptors, cAMP accumulation ([3]; listed as Corticotropin releasing factor): activated

GIP (from UniProt P09681 52-93) (peptide)
EC50 (GIP), BRET receptor activation; cells co-expressing FP-Gγ9 [4]: 0.3 nM
EC50 (GIP), BRET receptor activation; cells co-expressing FP-Gγ11 [4]: 0.4 nM
EC50 (GIP), BRET receptor activation; cells co-expressing FP-Gγ13 [4]: 0.3 nM
EC50 (GIP), BRET receptor activation; cells co-expressing Gγ5-FP [4]: 5.5 nM
EC50 (GIP), BRET receptor activation; cells co-expressing Gγ9-FP [4]: 1.4 nM
EC50 (GIP), BRET receptor activation; cells co-expressing Gγ10-FP [4]: 8.9 nM
EC50 (GIP), BRET receptor activation; cells co-expressing Gγ11-FP [4]: 1.6 nM
EC50 (GIP), BRET receptor activation; cells co-expressing Gγ13-FP [4]: 0.6 nM

GLP-1 (from UniProt P01275 21-180) (peptide)
EC50 (GLP-1), BRET receptor activation; cells co-expressing FP-Gγ1 [5]: 1.1 nM
EC50 (GLP-1), BRET receptor activation; cells co-expressing FP-Gγ2 [5]: 0.7 nM
EC50 (GLP-1), BRET receptor activation; cells co-expressing FP-Gγ3 [5]: 0.3 nM
EC50 (GLP-1), BRET receptor activation; cells co-expressing FP-Gγ4 [5]: 1.1 nM
EC50 (GLP-1), BRET receptor activation; cells co-expressing FP-Gγ5 [5]: 0.1 nM
EC50 (GLP-1), BRET receptor activation; cells co-expressing FP-Gγ7 [5]: 0.4 nM
EC50 (GLP-1), BRET receptor activation; cells co-expressing FP-Gγ8 [5]: 1.4 nM
EC50 (GLP-1), BRET receptor activation; cells co-expressing FP-Gγ9 [5]: 0.4 nM
EC50 (GLP-1), BRET receptor activation; cells co-expressing FP-Gγ10 [5]: 0.3 nM
EC50 (GLP-1), BRET receptor activation; cells co-expressing FP-Gγ11 [5]: 0.7 nM
EC50 (GLP-1), BRET receptor activation; cells co-expressing FP-Gγ12 [5]: 0.3 nM
EC50 (GLP-1), BRET receptor activation; cells co-expressing FP-Gγ13 [5]: 0.4 nM
EC50 (GLP-1), BRET receptor activation; cells co-expressing Gγ1-FP [5]: 1.1 nM
EC50 (GLP-1), BRET receptor activation; cells co-expressing Gγ2-FP [5]: 3 nM
EC50 (GLP-1), BRET receptor activation; cells co-expressing Gγ3-FP [5]: 1.5 nM
EC50 (GLP-1), BRET receptor activation; cells co-expressing Gγ4-FP [5]: 4.3 nM
EC50 (GLP-1), BRET receptor activation; cells co-expressing Gγ7-FP [5]: 5.2 nM
EC50 (GLP-1), BRET receptor activation; cells co-expressing Gγ8-FP [5]: 2.3 nM
EC50 (GLP-1), BRET receptor activation; cells co-expressing Gγ9-FP [5]: 1.7 nM
EC50 (GLP-1), BRET receptor activation; cells co-expressing Gγ10-FP [5]: 9.2 nM
EC50 (GLP-1), BRET receptor activation; cells co-expressing Gγ11-FP [5]: 3.1 nM
EC50 (GLP-1), BRET receptor activation; cells co-expressing Gγ12-FP [5]: 3.1 nM
EC50 (GLP-1), BRET receptor activation; cells co-expressing Gγ13-FP [5]: 1 nM

Gγ9-FP: fusion protein of human G-protein gamma9 and yellow fluorescent protein YPet, SEQ. ID. NOs. 5, 6
HTS compat. [6]: +
HTS compat. [7]: +

calcitonin: ligand of a receptor endogenously expressed in HEK cells
activation of the chimeric GIPR (BRET) [1]: lack of activation
activation of the chimeric M4R (BRET) [2]: lack of activation
activation of endogenously expressed receptors, cAMP accumulation [3]: activated; also recorded: increase in cAMP

B1: Bordetella pertussis toxin (protein)
chain: DDPPATVYRYDSRPPEDVFQNGFTAWGNNDNVLDHLTGRSCQVGSSNSAFVSTSSSRRYTEVYLEHRMQEAVEAERAGRGTGHFIGYIYEVRADNNFYGAASSYFEYVDTYGDNAGRILAGALATYQSEYLAHRRIPPENIRRVTRVYHNGITGETTTTEYSNARYVSQQTRANPNPYTSRRSVASIVGTLVRMAPVIGACMARQAESSEAMAAWSERAGEAMVLVYYESIAYSF
BRET signal change in response to acetylcholine after overnight incubation with PTX [8]: shows no effect on the BRET signal changes obtained in response to Ach
BRET signal change in response to acetylcholine after overnight incubation with PTX [9]: The Gαo-inhibiting effects of PTX are rescued by the C351S substitution
BRET signal change in response to acetylcholine after overnight incubation with 100 ng/ml PTX [10]: PTX effectively blocks the BRET signal changes compared to the non-PTX treated condition
